Measurements from US20200392225A1 (Novartis, published 2020).

Experiments:
[1] = target: T1, human NPR1 expressed on CHO-K1 cells (human, UniProt P16066 33-1061); assay: flow cytometry, hNPR1 expressing CHO-K1 cells without ANP
T1 construct: also called hNPR1 CHO K1; human NPR1 expressing CHO-K1 cells
T1 sequence: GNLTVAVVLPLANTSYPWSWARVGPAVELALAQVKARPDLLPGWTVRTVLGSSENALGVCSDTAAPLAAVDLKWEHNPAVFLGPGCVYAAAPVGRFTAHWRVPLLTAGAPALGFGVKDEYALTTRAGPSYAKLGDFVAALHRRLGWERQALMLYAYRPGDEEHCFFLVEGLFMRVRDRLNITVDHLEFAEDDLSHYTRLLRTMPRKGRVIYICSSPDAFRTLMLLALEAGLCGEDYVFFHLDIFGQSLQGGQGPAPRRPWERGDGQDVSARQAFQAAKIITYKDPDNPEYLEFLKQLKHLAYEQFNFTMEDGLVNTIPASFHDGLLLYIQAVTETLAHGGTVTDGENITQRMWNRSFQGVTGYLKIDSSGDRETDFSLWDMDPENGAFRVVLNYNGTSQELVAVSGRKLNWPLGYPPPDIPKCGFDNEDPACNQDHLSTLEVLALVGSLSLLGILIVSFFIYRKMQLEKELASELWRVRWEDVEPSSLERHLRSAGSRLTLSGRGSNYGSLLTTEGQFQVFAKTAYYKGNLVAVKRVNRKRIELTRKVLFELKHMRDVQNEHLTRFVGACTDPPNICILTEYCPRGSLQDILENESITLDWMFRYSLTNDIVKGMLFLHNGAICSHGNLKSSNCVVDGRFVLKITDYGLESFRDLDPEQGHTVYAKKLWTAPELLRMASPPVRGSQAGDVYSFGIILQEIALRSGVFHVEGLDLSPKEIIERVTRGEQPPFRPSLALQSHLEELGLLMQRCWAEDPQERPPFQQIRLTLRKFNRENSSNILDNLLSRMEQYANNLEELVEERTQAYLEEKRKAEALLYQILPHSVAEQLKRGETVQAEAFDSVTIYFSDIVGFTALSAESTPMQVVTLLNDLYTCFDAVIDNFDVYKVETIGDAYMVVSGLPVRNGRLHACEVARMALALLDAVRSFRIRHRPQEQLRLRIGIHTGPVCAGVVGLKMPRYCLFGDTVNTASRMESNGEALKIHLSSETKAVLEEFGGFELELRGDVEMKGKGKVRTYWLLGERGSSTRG

[2] = target: T2, constitutively active human NPR1 mutant (W74R), recombinant antigen (human, UniProt P16066 33-473); assay: ELISA, IgG titrated on the antigen without ANP
T2 construct: also called W74R hNPR1
T2 sequence: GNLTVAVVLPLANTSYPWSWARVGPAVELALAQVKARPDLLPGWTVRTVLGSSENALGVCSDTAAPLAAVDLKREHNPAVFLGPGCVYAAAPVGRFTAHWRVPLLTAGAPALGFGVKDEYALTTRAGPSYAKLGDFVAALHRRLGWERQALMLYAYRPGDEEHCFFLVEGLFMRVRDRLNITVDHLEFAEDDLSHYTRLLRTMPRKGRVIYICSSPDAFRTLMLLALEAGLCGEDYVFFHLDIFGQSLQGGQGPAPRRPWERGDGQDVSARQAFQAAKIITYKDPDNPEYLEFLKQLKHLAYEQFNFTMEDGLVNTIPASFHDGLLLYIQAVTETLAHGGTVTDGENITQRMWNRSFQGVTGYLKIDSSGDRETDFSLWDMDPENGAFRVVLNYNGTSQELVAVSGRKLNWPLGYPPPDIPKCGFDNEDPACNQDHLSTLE

B1: YY03 IgG (YY03_LALA) (antibody, V domains shown)
VH: EVQLLESGGGLVQPGGSLRLSCAASGFTFSSYAISWVRQAPGKGLEWVSAISGSGGSTYYAESVKGRFTISRDNSKNTLYLQMNSLRAEDTAVYYCARESGYVYYLKFDYWGQGTLVTVSS
VL: DIQMTQSPSSLSASVGDRVTITCRASQSISSYLNWYQQKPGKAPKLLIYAASSLQSGVPSRFSGSGSGTDFTLTISSLQPEDFATYYCQQHVRVPITFGQGTKVEIKR
B1: no binding (tested: 1000 nM) [1].

B2: WW01 IgG (WW01_LALA) (antibody, V domains shown)
VH: QVQLLESGGGLVQPGGSLRLSCAASGFTFNTHYIHWVRQAPGKGLEWVSSISGSGSNTYYADSVKGRFTISRDNSKNTLYLQMNSLRAEDTAVYYCARERGYVYYHMFDPWGQGTLVTVSS
VL: DIVLTQSPATLSLSPGERATLSCRASQSITRNYLAWYQQKPGQAPRLLIYGASSRATGIPARFSGSGSGTDFTLTISSLEPEDFAVYYCQQHSMYPRTFGQGTKVEIKR
B2: no binding (tested: 1000 nM) [2].
